Assay results published in patent US10485854B2, “Method of reducing biofilms” (Lysando AG, priority 2010, dated 2019).

How the values were obtained:
[1] = system: P. aeruginosa PAO1p cells; test: Antibacterial activity, 1 hour incubation with 100 μg/ml protein, residual colony count; settings: for Reduction [%] / antibacterial activity as the relative inactivation (%): undialyzed protein 100 μg/ml; for Reduction [%]: room temperature (Table 7); for antibacterial effect in words (reduction of cell numbers compared to the negative control): 100 μg/ml protein, room temperature; for antibacterial activity as the relative inactivation (%): exponentially growing cells, room temperature (Table 6)
[2] = system: biofilm of the Staphylococcus aureus strain KS13; test: Biofilm reduction, crystal violet assay; settings: 18 μg/well, 12 h; compared to the enzyme Lysostaphin
P. aeruginosa PAO1p = type: cell-based, Pseudomonas aeruginosa; settings: 1.315 μM endolysin + 0.5 mM EDTA

Molecule | Reduction [%] [1] [%] | antibacterial effect in words (reduction of cell numbers compared to the negative control) [1] | antibacterial activity as the relative inactivation (%) [1] [%] | other results
KRK_6_pET32b: fusion protein SEQ ID NO: 44: endolysin SEQ ID NO: 1 with peptide KRKKRK (SEQ ID NO: 10) (protein, KRK_6_pET32b) AMGSKRKKRKKVLRKGDRGDEVCQLQTLLNLCGYDVGKPDGIFGNNTFNQVVKFQKDNCLDSDGIVGKNTWAELFSKYSPPIPYKTIPMPTANKSRAAATPVMNAVENATGVRSQLLLTFASIESAFDYEIKAKTSSATGWFQFLTGTWKTMIENYGMKYGVLTDPTGALRKDPRISALMGAELIKENMNILRPVLKREPTDTDLYLAHFFGPGAARRFLTTGQNELAATHFPKEAQANPSIFYNKDGSPKTIQEVYNLMDGKVAAHRK | 99.9 | – | – | –
PK-Lysostaphin: fusion protein SEQ ID NO: 142: bacteriocin Lysostaphin (SEQ ID NO: 87) with peptide SEQ ID NO: 11 (protein, PK-Lysostaphin) AMGKRKKRKKRKGSAHEHSAQWLNNYKKGYGYGPYPLGINGGMHYGVDFFMNIGTPVKAISSGKIVEAGWSNYGGGNQIGLIENDGVHRQWYMHLSKYNVKVGDYVKAGQIIGWSGSTGYSTAPHLHFQRMVNSFSNSTAQDPMPFLKSAGYGKAGGTVTPTPNTGWKTNKYGTLYKSESASFTPNTDIITRTTGPFRSMPQSGVLKAGQTIHYDEVMKQDGHVWVGYTGNSGQRIYLPVRTWNKSTNTLGVLWGTIKLVPRGS | – | – | – | reduction of biofilm (crystal violet, absorption 590 nm) [2]: massive reduction
POLY-gp188: fusion protein SEQ ID NO: 39: endolysin ELgp188 (SEQ ID NO: 2) with peptide SEQ ID NO: 11 (protein, POLY-gp188) MGSKRKKRKKRKNFRTKNGYRDLQALVKELGLYTGQIDGVWGKGTSSSTETLLRGYAEVVGKNTGGIGLPTTSDASGYNVITALQRNLAFLGLYSLTVDGIWGNGTLSGLDKAFEVYKERYRTPTYDIAWSGKVSPAFTAKVKDWCGVHVPNHRAPHWLMACMAFETGQTFSPSIKNAAGSEAYGLIQFMSPAANDLNVPLSVIRSMDQLTQLDLVFKYFEMWMKRGKRYTQLEDFYLTIFHPASVGKKADEVLFLQGSKAYLQNKGFDVDKDGKITLGEISSTLYTTYYKGLLPENRHVISY | – | significant reduction | 98.0±0.2 | –
PKPSP3gp10: fusion protein SEQ ID NO: 53: endolysin PSP3gp10 (SEQ ID NO: 8) with peptide SEQ ID NO: 11 (protein, PKPSP3gp10) MGSKRKKRKKRKPVINTHQNIAAFLDMLAYSEGTANHPLTKNRGYDVIVTGFDGSPEIFTDYSDHPFAHGRPPKVFNRRGEKSTASGRYQQLYIFWPHYKKQLALPDFSPLSQDKLAIQLIRERGAIDDIRAGRIERAVSRCRNIWASLPGAGYGQREHSLEKLVTVWRTAGGVMA | – | – | – | interaction of EDTA with the endolysin (P. aeruginosa PAO1p): synergistically
R9_pET32b: fusion protein SEQ ID NO: 47: endolysin SEQ ID NO: 1 with peptide RRRRRRRRR (SEQ ID NO: 12) (protein, R9_pET32b) AMGSRRRRRRRRRKVLRKGDRGDEVCQLQTLLNLCGYDVGKPDGIFGNNTFNQVVKFQKDNCLDSDGIVGKNTWAELFSKYSPPIPYKTIPMPTANKSRAAATPVMNAVENATGVRSQLLLTFASIESAFDYEIKAKTSSATGWFQFLTGTWKTMIENYGMKYGVLTDPTGALRKDPRISALMGAELIKENMNILRPVLKREPTDTDLYLAHFFGPGAARRFLTTGQNELAATHFPKEAQANPSIFYNKDGSPKTIQEVYNLMDGKVAAHRK | 99 | – | – | –
(POLY)^2-gp144: fusion protein SEQ ID NO: 36: endolysin SEQ ID NO: 1 with peptide SEQ ID NO: 21 (protein, (POLY)2-gp144) MGSKRKKRKKRKRSKRKKRKKRKKVLRKGDRGDEVCQLQTLLNLCGYDVGKPDGIFGNNTFNQVVKFQKDNCLDSDGIVGKNTWAELFSKYSPPIPYKTIPMPTANKSRAAATPVMNAVENATGVRSQLLLTFASIESAFDYEIKAKTSSATGWFQFLTGTWKTMIENYGMKYGVLTDPTGALRKDPRISALMGAELIKENMNILRPVLKREPTDTDLYLAHFFGPGAARRFLTTGQNELAATHFPKEAQANPSIFYNKDGSPKTIQEVYNLMDGKVAAHRK | – | significant reduction | 99.98±0.02 | –
pK2KZ144_pET32b_mod3: fusion protein SEQ ID NO: 49: endolysin SEQ ID NO: 1 with 38-residue linker-containing peptide SEQ ID NO: 28 (protein, pK2KZ144_pET32b_mod3) AMGSKRKKRKKRKRGSGSGKRKKRKKRKRGSGSGKRKKRKKRKKVLRKGDRGDEVCQLQTLLNLCGYDVGKPDGIFGNNTFNQVVKFQKDNCLDSDGIVGKNTWAELFSKYSPPIPYKTIPMPTANKSRAAATPVMNAVENATGVRSQLLLTFASIESAFDYEIKAKTSSATGWFQFLTGTWKTMIENYGMKYGVLTDPTGALRKDPRISALMGAELIKENMNILRPVLKREPTDTDLYLAHFFGPGAARRFLTTGQNELAATHFPKEAQANPSIFYNKDGSPKTIQEVYNLMDGKVAAHRK | 99.9 | – | – | –
PSP3gp10: unmodified globular endolysin of Salmonella typhimurium phage PSP3, SEQ ID NO: 8 (protein, PSP3gp10) MPVINTHQNIAAFLDMLAYSEGTANHPLTKNRGYDVIVTGFDGSPEIFTDYSDHPFAHGRPPKVFNRRGEKSTASGRYQQLYIFWPHYKKQLALPDFSPLSQDKLAIQLIRERGAIDDIRAGRIERAVSRCRNIWASLPGAGYGQREHSLEKLVTVWRTAGGVMA | – | – | – | interaction of EDTA with the endolysin (P. aeruginosa PAO1p): synergistically
POLY-gp144: fusion protein SEQ ID NO: 35: endolysin phiKZgp144 (SEQ ID NO: 1) with N-terminal peptide KRKKRKKRK (SEQ ID NO: 11) (protein, POLY-gp144) MGSKRKKRKKRKKVLRKGDRGDEVCQLQTLLNLCGYDVGKPDGIFGNNTFNQVVKFQKDNCLDSDGIVGKNTWAELFSKYSPPIPYKTIPMPTANKSRAAATPVMNAVENATGVRSQLLLTFASIESAFDYEIKAKTSSATGWFQFLTGTWKTMIENYGMKYGVLTDPTGALRKDPRISALMGAELIKENMNILRPVLKREPTDTDLYLAHFFGPGAARRFLTTGQNELAATHFPKEAQANPSIFYNKDGSPKTIQEVYNLMDGKVAAHRK | – | significant reduction | 99.85±0.09 | –
K8_pET32b: fusion protein SEQ ID NO: 48: endolysin SEQ ID NO: 1 with peptide KKKKKKKK (SEQ ID NO: 13) (protein, K8_pET32b) AMGSKKKKKKKKKVLRKGDRGDEVCQLQTLLNLCGYDVGKPDGIFGNNTFNQVVKFQKDNCLDSDGIVGKNTWAELFSKYSPPIPYKTIPMPTANKSRAAATPVMNAVENATGVRSQLLLTFASIESAFDYEIKAKTSSATGWFQFLTGTWKTMIENYGMKYGVLTDPTGALRKDPRISALMGAELIKENMNILRPVLKREPTDTDLYLAHFFGPGAARRFLTTGQNELAATHFPKEAQANPSIFYNKDGSPKTIQEVYNLMDGKVAAHRK | 99 | – | – | –
(POLY)^2-gp188: fusion protein SEQ ID NO: 40: endolysin SEQ ID NO: 2 with peptide SEQ ID NO: 21 (protein, (POLY)2-gp188) MGSKRKKRKKRKRSKRKKRKKRKNFRTKNGYRDLQALVKELGLYTGQIDGVWGKGTSSSTETLLRGYAEVVGKNTGGIGLPTTSDASGYNVITALQRNLAFLGLYSLTVDGIWGNGTLSGLDKAFEVYKERYRTPTYDIAWSGKVSPAFTAKVKDWCGVHVPNHRAPHWLMACMAFETGQTFSPSIKNAAGSEAYGLIQFMSPAANDLNVPLSVIRSMDQLTQLDLVFKYFEMWMKRGKRYTQLEDFYLTIFHPASVGKKADEVLFLQGSKAYLQNKGFDVDKDGKITLGEISSTLYTTYYKGLLPENRHVISY | – | significant reduction | 98.9 ± 0.4 | –
ELgp188: unmodified modular endolysin of Pseudomonas aeruginosa phage EL, SEQ ID NO: 2 (protein, ELgp188) MNFRTKNGYRDLQALVKELGLYTGQIDGVWGKGTSSSTETLLRGYAEVVGKNTGGIGLPTTSDASGYNVITALQRNLAFLGLYSLTVDGIWGNGTLSGLDKAFEVYKERYRTPTYDIAWSGKVSPAFTAKVKDWCGVHVPNHRAPHWLMACMAFETGQTFSPSIKNAAGSEAYGLIQFMSPAANDLNVPLSVIRSMDQLTQLDLVFKYFEMWMKRGKRYTQLEDFYLTIFHPASVGKKADEVLFLQGSKAYLQNKGFDVDKDGKITLGEISSTLYTTYYKGLLPENRHVISY | – | do not reduce cell numbers significantly | 10 ± 13 | –
